Data reported in patent publication US8821943B2, “Methods and compositions for targeted delivery of therapeutic agents” (Board of Regents of the University of Nebraska, priority 2006, dated 2014).
Like-named read-outs stand apart in the source and are kept apart here. One block for each molecule: values may come before it.

Assays:
[1] = target: LHRH-receptor; experiment: Receptor binding assays (kinetic, saturation, competition) with 125I-deslorelin in bovine pituitary and nasal tissue homogenates; details: for IC50: read-out: Low affinity - IC50 II
Procedure: Radioactivity was measured in the pellet using a Perkin-Elmer γ-counter.
Reprod. […] Reprod. […] Radioactivity was measured in the pellet using a Perkin-Elmer γ-counter. […] The experiment was repeated three times.
Competition Studies: To determine the amount of unlabelled deslorelin required to displace the radioactivity, competition studies were conducted. […] Assays were performed in triplicates. At the end of 4 hr, the incubation tubes were centrifuged at 10,000 g for 20 min at 4° C. to separate the bound fraction. Radioactivity was measured in the pellet using a Perkin-Elmer γ-counter. The same controls as in the kinetic and saturation studies were used. The experiment was repeated three times.

[2] = in vivo, cited from earlier work
[3] = 3H-mannitol transport across excised bovine cornea (corneal barrier integrity); format: in vitro ADME; details: read-out: apparent permeability coefficient of mannitol
Procedure: The corneal barrier integrity in the ex vivo bovine model of Example 5 was also studied by analysis of ^3H-mannitol transport, with or without nanoparticle exposure. ^3H-mannitol was obtained from American Radiolabeled Chemicals, Inc. (St. Louis, Mo.). ^3H-mannitol transport across excised bovine cornea was performed without any treatment or after dosing the bovine ex vivo eye model with a 50 μl drop of assay buffer or 50 μl of 1 mg/ml nanoparticle suspension followed by incubation up to 60 min with buffer treatments as described above. Temperature was maintained at 37° C.
At 0, 5 and 60 minutes after assay buffer drop instillation and 60 min after nanoparticles drop instillation, the eyes were washed thrice with assay buffer (1 ml each time) and the corneas were isolated from the eyeball. The tissues were then mounted in modified Ussing chambers (Navicyte, Reno, N.Y.) for mannitol transport study. The aperture area of the chambers is 0.64 cm^2. The corneal area exposed was expected to be slightly greater than the chamber aperture area due to corneal curvature. ^3H-mannitol (1.5 ml; 1 μCi/ml) was placed in the donor chamber (epithelial to endothelial transport) and plain assay buffer (1.5 ml) was placed in the receiver chamber. At various time points up to 4 hours, 200 μl samples were removed from the receiver chamber and replaced with an equal volume of fresh assay buffer. To each sample, 4 ml of scintillation fluid (Fisher Scientific, NJ) was added and the radioactivity was quantified using a liquid scintillation counter. […] Data are expressed as mean±standard deviation for n=4.

[4] = tested on: excised bovine cornea; experiment: Nanoparticle transport and uptake, excised bovine cornea in modified Ussing chambers; format: in vitro ADME
Procedure: (§1) Nanoparticle uptake and transport studies were performed using excised bovine cornea and conjunctiva mounted in vertical diffusion chambers. Modified Ussing chambers (Navicyte, Reno, N.Y.) were used to mount bovine corneas and conjunctivas for transport studies. The tissues were exposed to 1.5 ml of assay buffer with either conjugated or unconjugated nanoparticles (100 μg/ml) on the mucosal/tear side (donor side). The area of exposure is 0.64 cm^2 for conjunctiva and slightly greater for cornea due to curvature. The receiver side was exposed to 1.5 ml of assay buffer without nanoparticles. The buffers were pre-equilibrated to 37° C. or 4° C. as required and the chambers were maintained at the desired temperature. […] The experiment was terminated at 4 hours and the samples were stored in polypropylene tubes at 4° C. until analysis.
(§2) At the end of 4 hour transport studies, the tissue area exposed to particle suspension (aperture area: 0.64 cm^2) were cut and washed thrice with assay buffer followed by the acid buffer (pH 5.0). The tissues were then homogenized in 2% Triton-X using Tissue Tearor™. The tissue debris was separated by centrifugation at 3000 rpm (Marathon Micro AR) for 10 minutes. The supernatant was collected to analyze the amount of nanoparticles taken up by the tissue. The supernatant was analyzed by spectrofluorometry at excitation and emission wavelengths of 505 and 515 nm, respectively.

[5] = tested on: bovine corneal epithelium, stroma, endothelium and aqueous humor; experiment: Eye drop nanoparticle uptake in excised (ex vivo) bovine eye model; format: in vitro ADME
Procedure: The precorneal residence of eye drops is very short and effective delivery to the cornea requires rapid binding and entry of drugs or carriers in vivo. The in vivo situation was simulated using an intact bovine eye for an ex vivo model. […] Then, the particle uptake at 5 and 60 min was measured following thorough washing of the eye surface to remove any loosely adherent particles. The uptake was expected to be the highest for the solutes or carriers tightly bound to the corneal surface or for those that are rapidly taken up by the corneal epithelium. To maintain the surface moisture and to simulate tear flow in part, buffer drops (50 μl) were administered every 15 min, and the water bath was sealed.
Freshly excised bovine eyes were obtained from a local slaughterhouse (Nebraska Beef, Omaha, Nebr.). The experiments were initiated within 2-3 hours after sacrifice. For the experiment, bovine eyes were placed in Teflon coated wells containing assay buffer to immerse the posterior segment, while exposing the cornea towards the surface. The Teflon coated well plate was placed in a shaking water bath maintained at 37° C. and the water bath was sealed with Saran Wrap™ (S.C. Johnson & Son, Inc., Racine, Wis.). Alternatively, the setup was placed in a cold room maintained at 4° C. Prior to dosing, the eyes were equilibrated for about 30 min with assay buffer at 37° C. or 4° C. as required. The measured temperatures of the vitreous humor and aqueous humor in the 37° C. study were ˜37° C. and ˜35° C., respectively. The measured temperature was ˜5° C. for both vitreous humor as well as aqueous humor in the 4° C. study. In the ex vivo studies, either 5 or 60 min time points were chosen since eye drops are rapidly cleared from the tissue surface and because high solute uptake is desired in a short time with eye drops.
Ex vivo model studies involved administration of a 50 μl dosing solution/suspension drop to the cornea followed by 50 μl drops of assay buffer on the cornea every 15 minutes to maintain corneal moisture. At the end of 0, 5, or 60 minutes study, the corneal surface was washed thrice with assay buffer (1 ml each time) followed by three washes with acid buffer (1 ml each time; assay buffer adjusted to pH 5.0 with HCl) to remove any loosely adherent nanoparticles prior to tissue analysis. The same protocol was followed even when plain buffer drops were assessed. To initiate the uptake experiment, a 50 μl eye drop of 10 mg/ml (in studies assessing the influence of epithelium in particle uptake) or 1 mg/ml nanoparticle suspension (unconjugated nanoparticles with carboxylate functionalities, deslorelin-CA and transferrin-CA) was topically administered to isolated bovine eyeballs. Buffer and wash treatments were performed as described above. At 5 and 60 minutes after drop instillation, the incubation was terminated and the corneal epithelium, stroma, endothelium and aqueous humor (0.5 ml) were isolated from the eyeball. The tissues were homogenized in 2% Triton-X. The supernatant obtained after centrifuging tissue homogenate at 5000 rpm (Marathon Micro AR, Fisher Scientific) for 10 minutes was analyzed by spectrofluorometry at excitation and emission wavelengths of 505 and 515 nm, respectively.

[6] = Particle size, polydispersity and zeta-potential by dynamic light scattering; format: physicochemical; details: Table 2, polystyrene nanoparticles
Procedure: Nanoparticle carrier particles were formed by the methods of the preceding Example, and characterized as follows. The particle size and the zeta-potential were measured using Zeta Plus zeta-potential analyzer (Brookhaven Instruments Ltd., New York, N.Y.), which employs the dynamic light scattering technique for particle size measurement. The particle size and zeta-potential measurements were made after 1:1000 dilution of particle stock in filtered deionized water. Further, the particles were visualized using a transmission electron microscope (TEM). The carbon-coated grids were floated on a suspension droplet of plain or functionalized nanoparticles on a flexible plastic film (Parafilm, Pechiney Plastic Packaging, Neenah, Wis.) to allow the adsorption of nanoparticles onto the grid. After drying the particles, uranyl acetate was added as a negative stain to the carbon grid and allowed to react with the particles. This procedure makes the particles electron dense, allowing their visualization using an electron microscope. The particles were photographed using EM410 Phillips electron microscope (Eindhoven, The Netherlands) set at 60 kV and a magnification of 153000×.
Characterization of particles: The particle size and the zeta-potential were measured using ZetaPlus® zeta-potential analyzer, Brookhaven Instruments Ltd. (New York, N.Y.), which employs the dynamic light scattering technique for particle size measurement. The particle size and zeta-potential measurements were carried out after 1:1000 dilution of particle stock in filtered deionized water before lyophilization in filtered deionized water. The effective diameter of conjugated nanoparticles was higher than that of unconjugated nanoparticles.
Particle Size Analysis: Particle size and zeta-potential of the nanoparticles before and after conjugation following lyophilization were measured in double distilled water (100 μl of particle/1 ml of water) using dynamic light scattering (DLS). After lyophilization the plasmid loaded particles were weighed (1 mg) into glass Kimble tubes. To each tube, 1 ml of double distilled water was added and vortexed at high speed (Vortex Genie, Scientific Industries, Bohemia, N.Y.) till the particles were resuspended. The particle size and zeta potential was determined using dynamic light scattering after dilution (1:10 in double distilled water) (Brookhaven Instruments Corp., Holtsville, N.Y.). Nanoparticle size after lyophilization was 210.4±0.68 nm and zeta potential was −32.85±0.87 mV. Nanoparticle size and zeta potential was measured after conjugation with deslorelin and transferrin. Similarly, the unconjugated nanoparticles were also treated under the same conditions as with the conjugated nanoparticles (the conjugation protocol as mentioned above).
Transport studies were conducted in bovine nasal tissue. Bovine nasal tissue was obtained from freshly slaughtered cattle, and different regions (MTA, MTP, ITP) were prepared as described in Example 13. Nanoparticles coupled to deslorelin or transferring via aldehyde sulfate moieties were prepared as described in Example 3. The nanoparticle size was measured using a Zeta Plus Analyzer (Brookhaven Instruments Limited, UK). Particle size was analyzed before and after ligand conjugation in deionized filtered water.

[7] = tested on: excised bovine conjunctiva; experiment: Nanoparticle transport and uptake, excised bovine conjunctiva in modified Ussing chambers; format: in vitro ADME
Procedure: as §1, §2

[8] = versus unconjugated nanoparticles, 37° C.
[9] = Corneal Epithelium, 50 μl of 1 mg/ml
[10] = Corneal Stroma, 50 μl of 1 mg/ml

IC50 ([1]; ITP): 32.9 ± 1.25 nM
IC50 ([1]; MTA): 53.2 ± 4 nM
IC50 ([1]; MTP): 42.1 ± 1.83 nM
IC50 ([1]; Pituitary, competition with 125I-deslorelin): 17.9 ± 0.449 nM
high affinity binding sites as share of all the binding sites available ([1]; competition studies, nasal tissue regions): 60-70%
Molecule: CCNC(=O)[C@@H]1CCCN1C(=O)[C@H](CCCN=C(N)N)NC(=O)[C@H](CC(C)C)NC(=O)[C@@H](Cc1c[nH]c2ccccc12)NC(=O)[C@H](Cc1ccc(O)cc1)NC(=O)[C@H](CO)NC(=O)[C@H](Cc1c[nH]c2ccccc12)NC(=O)[C@H](Cc1cnc[nH]1)NC(=O)[C@@H]1CCC(=O)N1 [deslorelin]

Molecule: CCNC(=O)[C@@H]1CCCN1C(=O)[C@H](CCCNC(=N)N)NC(=O)[C@H](CC(C)C)NC(=O)[C@@H](CC(C)C)NC(=O)[C@H](Cc1ccc(O)cc1)NC(=O)[C@H](CO)NC(=O)[C@H](Cc1c[nH]c2ccccc12)NC(=O)[C@H](Cc1c[nH]cn1)NC(=O)[C@@H]1CCC(=O)N1 [leuprolide]
bioavailability ([2]; inhaled or intranasal): 2.9%
bioavailability [2]: 28%

Papp at 4 h, 1 μCi/ml ([3]; corneas isolated at 5 min following 50 μl assay buffer drop): 0.5 ± 0.1 ×10⁻⁶ cm/s
Papp at 4 h, 1 μCi/ml ([3]; corneas isolated at 60 min following 50 μl assay buffer drop): 0.47 ± 0.04 ×10⁻⁶ cm/s
Papp at 4 h, 1 μCi/ml ([3]; freshly isolated corneas): 0.4 ± 0.1 ×10⁻⁶ cm/s
Molecule: OC[C@@H](O)[C@@H](O)[C@H](O)[C@H](O)CO [mannitol]

Molecule: Transferrin-CA: transferrin-carboxylate-conjugated polystyrene nanoparticles
uptake by isolated bovine cornea at the end of 4 hours ([4]; 37° C.): 2.36±0.03%
cumulative transport in 4 hours across isolated bovine cornea ([4]; 37° C., 100 μg/ml donor): 2.76±0.03%
reduction in corneal uptake at 4° C. ([4]; versus 37° C.): 47%
increase of percent transport across bovine cornea by conjugation [4, 8]: 74%
Corneal epithelial uptake (60 min) ([5]; Control (4° C.)): 307.1 ± 124 ng/mg tissue/mg dose
Corneal epithelial uptake (60 min) ([5]; Control (37° C.)): 1146.3 ± 306.6 ng/mg tissue/mg dose
Concentration at 5 min [5, 9]: 791 ± 239 ng/mg tissue/mg dose
Concentration at 60 min [5, 9]: 1146 ± 307 ng/mg tissue/mg dose
NP uptake at 5 min (%) [5, 9]: 4.96%
NP uptake at 60 min (%) [5, 9]: 7.19%
NP uptake at 5 min (%) [5, 10]: 10.98%
NP uptake at 60 min (%) [5, 10]: 3.31%
Corneal epithelial uptake (60 min) ([5]; With free ligand (37° C.), free deslorelin or transferrin 1 mg/ml): 467.1 ± 131.9 ng/mg tissue/mg dose
total corneal uptake in 5 min ([5]; summary of Examples 5-8): ~16%
Zeta potential [6]: −29.24 ± 4.33 mV
Measured Diameter ([6]; 1:1000 dilution in filtered deionized water, includes hydrodynamic layer, n = 3): 84.7 ± 0.8 nm
uptake in bovine conjunctiva at the end of 4 hours ([7]; 37° C.): 2.83±0.03%
cumulative transport in 4 hours across conjunctiva ([7]; 37° C., 100 μg/ml donor): 3.5±0.1%
reduction in conjunctival uptake at 4° C. ([7]; versus 37° C.): 52%
reduction in the cumulative transport in conjunctiva at 4° C. ([7]; versus 37° C.): 89%
increase of percent transport across conjunctiva by conjugation [7, 8]: 51%
